By pKa is commonly meant the negative logarithm of the acid dissociation constant.

Results on nine substances are retold here after article PMC6755812.

One data set addresses Cys32 (UniProt position 33, FWAEWCGPCKM). The following applies: reduced (dithiol) form implied; not stated explicitly; cited from earlier work.
Data set [1] deals with bovine pancreas insulin (bovine).
The target of data set [2] is Escherichia coli peptide methionine sulfoxide reductase A (E. coli) (UniProt P0A744).
The target of data set [3] is Escherichia coli thioredoxin reductase (E. coli) (UniProt P0A9P4).
Chain of Escherichia coli thioredoxin reductase (E. coli) (P0A9P4 2-321): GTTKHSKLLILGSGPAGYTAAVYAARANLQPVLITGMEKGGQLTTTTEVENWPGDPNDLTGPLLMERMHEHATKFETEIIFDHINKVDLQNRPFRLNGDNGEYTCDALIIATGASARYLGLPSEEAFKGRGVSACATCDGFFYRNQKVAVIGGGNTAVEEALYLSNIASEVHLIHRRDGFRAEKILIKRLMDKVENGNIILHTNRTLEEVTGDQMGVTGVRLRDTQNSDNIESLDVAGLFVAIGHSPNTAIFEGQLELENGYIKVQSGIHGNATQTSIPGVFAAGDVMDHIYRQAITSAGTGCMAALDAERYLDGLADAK

Chain of Escherichia coli thioredoxin (P0AA25 2-109): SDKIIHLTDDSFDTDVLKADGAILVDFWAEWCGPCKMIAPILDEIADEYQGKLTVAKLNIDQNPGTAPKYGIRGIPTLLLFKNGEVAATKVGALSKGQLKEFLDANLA
Chain of Escherichia coli peptide methionine sulfoxide reductase A (E. coli) (P0A744 2-212): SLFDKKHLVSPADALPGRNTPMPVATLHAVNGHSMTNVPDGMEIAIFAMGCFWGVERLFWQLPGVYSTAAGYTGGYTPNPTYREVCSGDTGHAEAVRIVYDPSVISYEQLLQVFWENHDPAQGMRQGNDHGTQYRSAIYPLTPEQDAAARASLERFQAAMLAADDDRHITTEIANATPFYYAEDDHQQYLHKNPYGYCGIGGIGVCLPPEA

As for “Thioredoxin 1 (ecTrx) (Escherichia coli)”, the pKa in the data set with Cys32 was 7.1.

“Last Common Ancestor of the Cyanobacterial, Deinococcus, and Thermus group thioredoxin (enzyme)” showed a Specific insulin reductase activity (0.13 mM insulin, 1 mM DTT, 0.5-2.0 μM Trx, onset of aggregation at OD650, pH 7.0, 25 °C) in data set [1] of 0.104 min^−1 μM^−1. Besides, in data set [2], the k1: rate constant of Trx–MsrA mixed disulfide formation (stopped-flow fluorescence, 1 μM oxidized MsrA, 5-100 μM reduced Trx, pH 7.0, 25 °C) turned out to be 436000 M^−1 s^−1; the k2: rate constant of mixed disulfide dissociation to reduced MsrA and oxidized Trx (stopped-flow fluorescence, pH 7.0, 25 °C) was determined as 2.93 s^−1. Besides, in data set [3], the Catalytic activity of S-MetO reduction by NADPH (Vi/[Trx]) in the reconstituted NADPH/TrxR/Trx/MsrA chain (4.5 μM TrxR, 4.5 μM MsrA, 0.1-1.0 μM Trx, pH 7.0, 25 °C) is 36.9 min^−1 and the kcat/Km: activity as substrate of TrxR (ecTrxR-catalysed reduction of Trx by NADPH, DTNB-coupled, 0.04 μM TrxR, 0.1-300 μM Trx, pH 7.0, 25 °C) was 7.6e+06 M^−1 s^−1.

In turn, “Last Eukaryotic Common Ancestor thioredoxin (enzyme)” gave a Specific insulin reductase activity (0.13 mM insulin, 1 mM DTT, 0.5-2.0 μM Trx, onset of aggregation at OD650, pH 7.0, 25 °C) in data set [1] of 0.0738 min^−1 μM^−1. In data set [2], this substance returned a k1: rate constant of Trx–MsrA mixed disulfide formation (stopped-flow fluorescence, 1 μM oxidized MsrA, 5-100 μM reduced Trx, pH 7.0, 25 °C) of 40700 M^−1 s^−1; a k2: rate constant of mixed disulfide dissociation to reduced MsrA and oxidized Trx (stopped-flow fluorescence, pH 7.0, 25 °C) of 3.51 s^−1. Further, the Catalytic activity of S-MetO reduction by NADPH (Vi/[Trx]) in the reconstituted NADPH/TrxR/Trx/MsrA chain (4.5 μM TrxR, 4.5 μM MsrA, 0.1-1.0 μM Trx, pH 7.0, 25 °C) in data set [3] was 0.29 min^−1.

In turn, “Last Bacterial Common Ancestor thioredoxin (enzyme)” showed a Specific insulin reductase activity (0.13 mM insulin, 1 mM DTT, 0.5-2.0 μM Trx, onset of aggregation at OD650, pH 7.0, 25 °C) in data set [1] of 0.0781 min^−1 μM^−1. In data set [2], the k1: rate constant of Trx–MsrA mixed disulfide formation (stopped-flow fluorescence, 1 μM oxidized MsrA, 5-100 μM reduced Trx, pH 7.0, 25 °C) came to 498000 M^−1 s^−1; the k2: rate constant of mixed disulfide dissociation to reduced MsrA and oxidized Trx (stopped-flow fluorescence, pH 7.0, 25 °C) came out at 2.69 s^−1. Besides, in data set [3], the Catalytic activity of S-MetO reduction by NADPH (Vi/[Trx]) in the reconstituted NADPH/TrxR/Trx/MsrA chain (4.5 μM TrxR, 4.5 μM MsrA, 0.1-1.0 μM Trx, pH 7.0, 25 °C) worked out at 11.7 min^−1 and the kcat/Km: activity as substrate of TrxR (ecTrxR-catalysed reduction of Trx by NADPH, DTNB-coupled, 0.04 μM TrxR, 0.1-300 μM Trx, pH 7.0, 25 °C) was 117000 M^−1 s^−1.

“Escherichia coli thioredoxin (from UniProt P0AA25 2-109) (enzyme)” gave a Specific insulin reductase activity (0.13 mM insulin, 1 mM DTT, 0.5-2.0 μM Trx, onset of aggregation at OD650, pH 7.0, 25 °C) in data set [1] of 0.0512 min^−1 μM^−1. In data set [2], the k1: rate constant of Trx–MsrA mixed disulfide formation (stopped-flow fluorescence, 1 μM oxidized MsrA, 5-100 μM reduced Trx, pH 7.0, 25 °C) amounted to 1.01e+06 M^−1 s^−1; the k2: rate constant of mixed disulfide dissociation to reduced MsrA and oxidized Trx (stopped-flow fluorescence, pH 7.0, 25 °C) was found to be 2.89 s^−1. Further, in data set [3], the Catalytic activity of S-MetO reduction by NADPH (Vi/[Trx]) in the reconstituted NADPH/TrxR/Trx/MsrA chain (4.5 μM TrxR, 4.5 μM MsrA, 0.1-1.0 μM Trx, pH 7.0, 25 °C) stood at 66.9 min^−1 and the kcat/Km: activity as substrate of TrxR (ecTrxR-catalysed reduction of Trx by NADPH, DTNB-coupled, 0.04 μM TrxR, 0.1-300 μM Trx, pH 7.0, 25 °C) is 8.81e+06 M^−1 s^−1.

“Last γ-Proteobacteria Common Ancestor thioredoxin (enzyme)” gave a Specific insulin reductase activity (0.13 mM insulin, 1 mM DTT, 0.5-2.0 μM Trx, onset of aggregation at OD650, pH 7.0, 25 °C) in data set [1] of 0.0645 min^−1 μM^−1. For the same substance, in data set [2], the k1: rate constant of Trx–MsrA mixed disulfide formation (stopped-flow fluorescence, 1 μM oxidized MsrA, 5-100 μM reduced Trx, pH 7.0, 25 °C) was determined as 369000 M^−1 s^−1; the k2: rate constant of mixed disulfide dissociation to reduced MsrA and oxidized Trx (stopped-flow fluorescence, pH 7.0, 25 °C) was determined as 1.65 s^−1. Further, in data set [3], the Catalytic activity of S-MetO reduction by NADPH (Vi/[Trx]) in the reconstituted NADPH/TrxR/Trx/MsrA chain (4.5 μM TrxR, 4.5 μM MsrA, 0.1-1.0 μM Trx, pH 7.0, 25 °C) turned out to be 25.8 min^−1 and the kcat/Km: activity as substrate of TrxR (ecTrxR-catalysed reduction of Trx by NADPH, DTNB-coupled, 0.04 μM TrxR, 0.1-300 μM Trx, pH 7.0, 25 °C) turned out to be 718000 M^−1 s^−1.

With “Last Animalia and Fungi Common Ancestor thioredoxin (enzyme)”, in data set [1], the Specific insulin reductase activity (0.13 mM insulin, 1 mM DTT, 0.5-2.0 μM Trx, onset of aggregation at OD650, pH 7.0, 25 °C) was determined as 0.0224 min^−1 μM^−1. In data set [2], this substance came in with a k1: rate constant of Trx–MsrA mixed disulfide formation (stopped-flow fluorescence, 1 μM oxidized MsrA, 5-100 μM reduced Trx, pH 7.0, 25 °C) of 45000 M^−1 s^−1; a k2: rate constant of mixed disulfide dissociation to reduced MsrA and oxidized Trx (stopped-flow fluorescence, pH 7.0, 25 °C) of 3.47 s^−1.

Regarding “Last Archaeal Common Ancestor thioredoxin (enzyme)”, in data set [1], the Specific insulin reductase activity (0.13 mM insulin, 1 mM DTT, 0.5-2.0 μM Trx, onset of aggregation at OD650, pH 7.0, 25 °C) was determined as 0.0532 min^−1 μM^−1. For the same substance, in data set [2], the k1: rate constant of Trx–MsrA mixed disulfide formation (stopped-flow fluorescence, 1 μM oxidized MsrA, 5-100 μM reduced Trx, pH 7.0, 25 °C) was 518000 M^−1 s^−1; the k2: rate constant of mixed disulfide dissociation to reduced MsrA and oxidized Trx (stopped-flow fluorescence, pH 7.0, 25 °C) was 1.54 s^−1. In addition, in data set [3], the Catalytic activity of S-MetO reduction by NADPH (Vi/[Trx]) in the reconstituted NADPH/TrxR/Trx/MsrA chain (4.5 μM TrxR, 4.5 μM MsrA, 0.1-1.0 μM Trx, pH 7.0, 25 °C) worked out at 9.13 min^−1 and the kcat/Km: activity as substrate of TrxR (ecTrxR-catalysed reduction of Trx by NADPH, DTNB-coupled, 0.04 μM TrxR, 0.1-300 μM Trx, pH 7.0, 25 °C) was determined as 118000 M^−1 s^−1.

Regarding “Archaeal–Eukaryotic Common Ancestor thioredoxin (enzyme)”, in data set [1], the Specific insulin reductase activity (0.13 mM insulin, 1 mM DTT, 0.5-2.0 μM Trx, onset of aggregation at OD650, pH 7.0, 25 °C) turned out to be 0.0452 min^−1 μM^−1. In data set [2], this substance gave a k1: rate constant of Trx–MsrA mixed disulfide formation (stopped-flow fluorescence, 1 μM oxidized MsrA, 5-100 μM reduced Trx, pH 7.0, 25 °C) of 716000 M^−1 s^−1; a k2: rate constant of mixed disulfide dissociation to reduced MsrA and oxidized Trx (stopped-flow fluorescence, pH 7.0, 25 °C) of 1.75 s^−1. Besides, in data set [3], the Catalytic activity of S-MetO reduction by NADPH (Vi/[Trx]) in the reconstituted NADPH/TrxR/Trx/MsrA chain (4.5 μM TrxR, 4.5 μM MsrA, 0.1-1.0 μM Trx, pH 7.0, 25 °C) amounted to 14.6 min^−1 and the kcat/Km: activity as substrate of TrxR (ecTrxR-catalysed reduction of Trx by NADPH, DTNB-coupled, 0.04 μM TrxR, 0.1-300 μM Trx, pH 7.0, 25 °C) amounted to 130000 M^−1 s^−1.
